Source: patent US20240417475A1 (AFFIMED, published 2024)

How the values were obtained:
[1] = biological target: T1, human FOLR1 endogenously expressed on tumor cell lines (human, UniProt P15328 25-234); assay: flow cytometry on IGROV-1 cells, 37 C, one-site fit of MFI, mean
T1 construct: whole, on cells; also called FOLR1-positive tumor cell lines; FOLR1+ target cells
Protocol: (§1) Cells were collected and centrifuged at 400×g, 5 min, 4° C. Cell pellets were resuspended in FACS buffer (PBS (Invitrogen, cat.: 392-0434) containing 2% h.i. FCS (Invitrogen, cat.: 10500-064), and 0.1% sodium azide (Sigma, cat.: S8032)) at 1-5×10⁶ cells/mL. 100 μL/well of the cell suspension were transferred into U-shaped, 96-well micro plates (0.1-0.5×10⁶ cells per well), cells were pelleted at 400×g, 5 min, 4° C., and resuspended in 100 μL/well of serial dilutions of the indicated antibodies in FACS buffer. After 40-50 min incubation at 37° C., cells were washed 3-times with ice-cold FACS buffer. […] After the final incubation step, cells were washed 2-times with ice-cold FACS buffer, and the cell pellet was resuspended in 100 μL FACS buffer. Fluorescence intensities of >1×10⁴ viable cells were analyzed by flow cytometry and the median fluorescence intensity (MFI) was determined for each sample.
(§2) Equilibrium dissociation constants (KD) of antibody binding, mean and standard deviation (SD) were calculated by plotting MFI values and fitting a non-linear regression model for one-site binding to hyperbolic dose-response curves using GraphPad Prism for Windows (v9; GraphPad Software; La Jolla California USA).
(§3) Specific antibody binding capacity (SABC) as a marker for FOLR1 expression level on cells was determined on all tumor cell lines using QIFIKIT.

[2] = biological target: T2, CD16A endogenously expressed on primary human NK cells (human, UniProt P08637 17-254); assay: flow cytometry on primary human NK cells, biotinylated antibody, 37 C, without IgG, mean of 4
T2 sequence (P08637 17-254 limits assumed): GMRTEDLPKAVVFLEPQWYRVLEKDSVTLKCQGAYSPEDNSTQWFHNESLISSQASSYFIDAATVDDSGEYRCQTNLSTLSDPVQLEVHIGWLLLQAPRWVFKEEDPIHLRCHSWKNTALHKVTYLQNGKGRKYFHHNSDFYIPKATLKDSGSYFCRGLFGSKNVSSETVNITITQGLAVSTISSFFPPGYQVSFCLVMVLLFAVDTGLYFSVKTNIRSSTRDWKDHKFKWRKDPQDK
Protocol: (§4) 4° C., and resuspended in 50 μL/well of diluted antibody constructs. […] After 40-50 minutes' incubation at 37° C., cells were washed 3-times with ice-cold FACS buffer. […] After the final incubation step, cells were washed 2-times with ice-cold FACS buffer, and the cell pellet was resuspended in 50 μL FACS buffer. Fluorescence intensity of >1×10⁴ viable cells was analyzed by flow cytometry and the median fluorescence intensity (MFI) was determined for each sample.
(§5) Equilibrium dissociation constants (KD) of antibody binding were calculated by plotting MFI values and fitting a non-linear regression model for one-site binding to hyperbolic dose-response curves using GraphPad Prism.

[3] = biological target: T1, human FOLR1 endogenously expressed on …; assay: cell-based or functional assay
[4] = biological target: T1, human FOLR1 endogenously expressed on …; assay: cell-based or functional assay; remark: listed apart in the source
[5] = biological target: T2, CD16A endogenously expressed on primary …; assay: flow cytometry on primary human NK cells, with against without 10 mg/mL polyclonal human IgG
Protocol: as §4, §5

[6] = biological target: T1, human FOLR1 endogenously expressed on …; assay: flow cytometry on HCC-827 cells, 37 C, one-site fit of MFI, mean
Protocol: as §1, §2, §3

[7] = biological target: T2, CD16A endogenously expressed on primary …; assay: flow cytometry on primary human NK cells at 37 °C, biotinylated antibody, streptavidin-FITC, in the presence of 10 mg/mL polyclonal human IgG (competitor)
Protocol: (§6) Frozen NK cells were thawed, and viability was determined with trypan blue (Sigma-Aldrich, cat.: T8154). Cells have been centrifuged at 400×g, 5 min, 4° C. Cell pellets were resuspended in FACS buffer PBS (Invitrogen, cat.: 392-0434) containing 2% h.i. FCS (Invitrogen, cat.: 10500-064), and 0.1% sodium azide (Sigma, cat.: S8032) at 2×10⁶ cells/mL. 100 μL/well of the cell suspension were transferred into U-shaped 96 well plates, cells were pelleted at 400×g, 5 min. 4° C., and resuspended in 50 μL/well of diluted antibody constructs. […] After 40-50 minutes' incubation at 37° C., cells were washed 3-times with ice-cold FACS buffer. […] After the final incubation step, cells were washed 2-times with ice-cold FACS buffer, and the cell pellet was resuspended in 50 μL FACS buffer. Fluorescence intensity of >1×10⁴ viable cells was analyzed by flow cytometry and the median fluorescence intensity (MFI) was determined for each sample.

[8] = biological target: T2, CD16A endogenously expressed on primary …; assay: flow cytometry on primary human NK cells at 37 °C, biotinylated antibody, streptavidin-FITC, without polyclonal human IgG
Protocol: as §6

[9] = biological target: T2, CD16A endogenously expressed on primary …; assay: flow cytometry on primary human NK cells, biotinylated antibody, 37 C, with 10 mg/mL polyclonal human IgG as competitor, mean of 4
Protocol: as §4, §5

[10] = biological target: T1, human FOLR1 endogenously expressed on …; assay: cell-based or functional assay; remark: listed apart in the source
[11] = biological target: T1, human FOLR1 endogenously expressed on …; assay: flow cytometry on NCI-H2110 cells, 37 C, one-site fit of MFI, mean
Protocol: as §1, §2, §3

[12] = biological target: T2, CD16A endogenously expressed on primary …; assay: flow cytometry on primary human NK cells, without IgG, range of 4 experiments
Protocol: as §4, §5

[13] = biological target: T1, human FOLR1 endogenously expressed on …; assay: flow cytometry on IGROV-1 cells (FOLR1 high) at 37 °C, FITC anti-human IgG detection
In short: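 Cells in PBS with 2% h.i. FCS and 0.1% sodium azide, 0.1-0.5×10⁶ per well, were incubated 40-50 min with serial antibody dilutions, then washed with ice-cold buffer. Median fluorescence intensity of >1×10⁴ viable cells was determined by flow cytometry.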

T1 sequence (P15328 25-234): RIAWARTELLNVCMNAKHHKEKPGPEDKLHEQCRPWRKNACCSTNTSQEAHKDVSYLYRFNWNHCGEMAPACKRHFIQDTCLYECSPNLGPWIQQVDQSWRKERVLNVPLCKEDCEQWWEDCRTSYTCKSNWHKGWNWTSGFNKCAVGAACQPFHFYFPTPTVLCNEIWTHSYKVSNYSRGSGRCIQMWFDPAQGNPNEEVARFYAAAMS

B1: scFv-IgAb_387 (FOLR1_1×CD16a3) (bispecific antibody)
heavy: EVQLVESGGGVVQPGRSLRLSCSASGFTFSGYGLSWVRQAPGKGLEWVAMISSGGSYTYYADSVKGRFAISRDNAKNTLFLQMDSLRPEDTGVYFCARHGDDPAWFAYWGQGTPVTVSSASTKGPSVFPLAPSSKSTSGGTAALGCLVKDYFPEPVTVSWNSGALTSGVHTFPAVLQSSGLYSLSSVVTVPSSSLGTQTYICNVNHKPSNTKVDKKVEPKSCDKTHTCPPCPAPEFEGGPSVFLFPPKPKDTLMISRTPEVTCVVVAVSHEDPEVKFNWYVDGVEVHNAKTKPREEQYNSTYRVVSVLTVLHQDWLNGKEYKCKVSNKALPAPIEKTISKAKGQPREPQVYTLPPSREEMTKNQVSLTCLVKGFYPSDIAVEWESNGQPENNYKTTPPVLDSDGSFFLYSKLTVDKSRWQQGNVFSCSVMHEALHNHYTQKSLSLSPGGGGGSGGGGSGGGGSGGGGSGGGGSGGGGSSYELTQPLSVSVALGQTARITCGGNNIGSKSVHWYQQKPGQAPVLVIYQDKKRPSGIPERFSGSNSGNTATLTISRAQAGDEADYYCQVWDDYIVLFGCGTKLTVLGGSGGSGGSGGSGGSGGSGGSQVQLVQSGAEVKKPGASVKVSCKASGYTFTNYYMQWVRQAPGQCLEWMGIINPSGGVTSYAQKFQGRVTMTRDTSTSTVYMELSSLRSEDTAVYYCARGSAYYYDFADYWGQGTLVTVSSG
light: DIQLTQSPSSLSASVGDRVTITCSVSSSISSNNLHWYQQKPGKAPKPWIYGTSNLASGVPSRFSGSGSGTDYTFTISSLQPEDIATYYCQQWSSYPYMYTFGQGTKVEIKRTVAAPSVFIFPPSDEQLKSGTASVVCLLNNFYPREAKVQWKVDNALQSGNSQESVTEQDSKDSTYSLSSTLTLSKADYEKHKVYACEVTHQGLSSPVTKSFNRGEC
modifications: Chemically biotinylated (NHS-PEG4-biotin) in Example 22 only.
notes: Tetravalent bispecific scFv-IgAb; also called FOLR1×CD16A scFv-IgAb_387; FOLR1/CD16A scFv-IgAb_387; copies: 2 + 2
Kd [1]: 3.7 nM
Kd [2]: 4.3 nM
EC50 [pM] of ADCC, 4 h calcein release, NK cells E:T 5:1, IGROV-1 cells [3]: 1 pM
EC50 [pM] of ADCC, A2780 cells [3]: 5.5 pM
EC50 [pM] of ADCC, HCC-827 cells [3]: 2.8 pM
EC50 [pM] of ADCC, MDA-MB-231 cells [3]: 6.5 pM
EC50 [pM] of ADCC, NCI-H2110 cells [3]: 0.8 pM
EC50 [pM] of ADCC, OVCAR-3 cells [3]: 1.1 pM
fold-improvement in efficacy vs IgAb_335, ADCC, A2780 cells [3]: 2.9 fold
fold-improvement in efficacy vs IgAb_335, ADCC, HCC-827 cells [3]: 1.9 fold
fold-improvement in efficacy vs IgAb_335, ADCC, IGROV-1 cells [3]: 0.9 fold
fold-improvement in efficacy vs IgAb_335, ADCC, MDA-MB-231 cells [3]: 2.1 fold
fold-improvement in efficacy vs IgAb_335, ADCC, NCI-H2110 cells [3]: 1.2 fold
fold-improvement in efficacy vs IgAb_335, ADCC, OVCAR-3 cells [3]: 1.4 fold
fold-improvement in potency vs IgAb_335, ADCC, A2780 cells [3]: 593 fold
fold-improvement in potency vs IgAb_335, ADCC, HCC-827 cells [3]: 30.8 fold
fold-improvement in potency vs IgAb_335, ADCC, IGROV-1 cells [3]: 15.1 fold
fold-improvement in potency vs IgAb_335, ADCC, MDA-MB-231 cells [3]: 54 fold
fold-improvement in potency vs IgAb_335, ADCC, NCI-H2110 cells [3]: 34.4 fold
fold-improvement in potency vs IgAb_335, ADCC, OVCAR-3 cells [3]: 40.4 fold
EC50 of ADCC, 4 h calcein release, NK cells, HCC-827 cells [4]: 0.006 nM
EC50 of ADCC, 4 h calcein release, NK cells, OVCAR-3 cells [4]: 0.0008 nM
fold loss in KD induced by IgG [5]: 5.3 fold
Kd [6]: 2.7 nM
EC50 (read off the curve) [7]: ~20 nM
EC50 (read off the curve) [8]: ~4 nM
Kd [9]: 23.1 nM
EC50 [nM] of ADCP, DK-MG cells [10]: 0.1 nM
EC50 [nM] of ADCP, HCC-78 cells [10]: 17.8 nM
EC50 [nM] of ADCP, HeLa cells [10]: 0.16 nM
Phagocytosis [%], 4 h ADCP, DK-MG cells [10]: 17.6%
Phagocytosis [%], 4 h ADCP, HCC-78 cells [10]: 26%
Kd [11]: 2.5 nM
Kd [12]: 3.7 to 5.4 nM
EC50 (read off the curve) [13]: ~3 nM
